{
  "source": "the nanobody polyreactivity screen of Harvey et al. (2022)",
  "data": [
    {"assay": "yeast display, Sf9 membrane polyspecificity reagent, FACS + sequencing; frameworks hold sequencing errors", "summary_of_the_method": "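Galactose-induced (36–48 hours) yeast carrying a synthetic nanobody display library were exposed to 10% biotinylated, detergent-solubilized Sf9 membrane reagent at 4 °C for 1 hour. FACS followed streptavidin microbead enrichment, using low and high (top ~1%) gates for expression (anti-HA) and reagent binding (streptavidin). Colony PCR, MiSeq 2 × 250 sequencing and CDR-length filtering followed. Labels for polyreactivity reflect the gate of origin.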", "values": [
      {"sequence": "QVQLEESGGGLVQAGGSLRLSCAASGNILFKYAMGWNRQAPGKERELVASITSRGGSTYYADSVKGRFTISRDNAKNTVYLQMNSLKPEDTAVYYCAVDADEVTFDYWGQGTQVTVSS", "polyreactivity (PSR sort gate)": "low polyreactivity"},
      {"sequence": "QVQLEESGGGLVQAGGSLRLSCAASGNTFPGYAMGWYRQAPGKERELVARISRSGGSTYYADSVKGRFTISRDNAKKTVYLQMNSLKPEDTAVYYCAAGAYRSGGYSFDYWGQGTQVTVSS", "polyreactivity (PSR sort gate)": "low polyreactivity"},
      {"sequence": "QVQLEESGGGLVQAGGSLRLSCAASGNTFTEYAMGWYRPAPGKEWELVASITGSGGSTYADSVKGRFTISRDNAKNSVYLQMNSLIAEDTAVYYCAKDTRYEYVGSEYGYWGQGTQVTVSS", "polyreactivity (PSR sort gate)": "low polyreactivity"},
      {"sequence": "QVQLEESGGGLVQAGGSLRLSCAASGRIFATNAMGWYRPAPATERELVAAISSSGGPTYYADSVKGRFTISRDNAKNTVYLQMNSLIREATAVYYCARVPITNDQYSHYYYWGQGTQVTVSS", "polyreactivity (PSR sort gate)": "high polyreactivity"},
      {"sequence": "QVQLEESGGGLVQAGGSLRLSCAASGRIFGINALGWYRQAPGQERALVAAISRSGSRTYYADSVKGRFTISRDNAMNTVYLQMNSLKPEDTALYYCNARHQRFYAQPGDYWGQGTQVTVSS", "polyreactivity (PSR sort gate)": "high polyreactivity"},
      {"sequence": "QVQLEESGGGLVQAGGSLRLSCAASGRIFGWYTMGWYRQAPGKERELVAAINFSGSRTYYADSVKGRFTISRDNAKNTVYLQMNSLKPEDTAVYYCNAVYHQFREEYWGQGTQVTVSS", "polyreactivity (PSR sort gate)": "high polyreactivity"},
      {"sequence": "QVQLEESGGGLVQAGGSLRLSCAASGRIFGYYDMGWYRQAPGKERELVARITRGGGTTYYADSVKGRFTISRDNAKNTVYLQMNSLKPEDTAVYYCAAVRSWWHTHYNYDYWGQGTQVTVSS", "polyreactivity (PSR sort gate)": "high polyreactivity"},
      {"sequence": "QVQLEESGGGLVQAGGSLRLSCAASGRIFHVNAMGWYRPAPGKERELVAAISTSGGRTYYADSVKGRFTISRDNAKNTVYLQMNSLKPEDTAVYYCAKRWPLYVDPTRMDYWGQGTQVTVSS", "polyreactivity (PSR sort gate)": "high polyreactivity"},
      {"sequence": "QVQLEESGGGLVQAGGSLRLSCAASGRIFPRYAMGWYRQAPGKERELVATISSGGSTYYADSVKGRFTISRDNATNTVYLQMNSLTPEDTAVYYCAARKRPYSVINGMDYWGQGTQVTVSS", "polyreactivity (PSR sort gate)": "low polyreactivity"},
      {"sequence": "QVQLEESGGGLVQAGGSLRLSCAASGRIFRPYAMGWYRQAPGKERELVAAISFSGGSTYYADSVKGRFTISRDNAKNTVYLQMNSLKPEDTAVYYCNKDLYRYPGYDYWGQGTQVTVSS", "polyreactivity (PSR sort gate)": "high polyreactivity"},
      {"sequence": "QVQLEESGGGLVQAGGSLRLSCAASGRIFSNNVMGWYRQAPGKERELVATISTDGRTNYADSVKGRFTISRDNAKNTVYLQMNSLKPEDTAVYYCAATGVTILLSSKSDYWGQGTQVTVSS", "polyreactivity (PSR sort gate)": "low polyreactivity"},
      {"sequence": "QVQLEESGGGLVQAGGSLRLSCAASGRIFTGYAMGWYRQAPGKERELVAAIRGSGTSTYYADSVKGRFTISRDNAKNTVYLQMNSLKPEDTAVFYCAADWYTSRGWDWYDYWGQGTQVTVSS", "polyreactivity (PSR sort gate)": "high polyreactivity"},
      {"sequence": "QVQLEESGGGLVQAGGSLRLSCAASGRIFVRNGMGWYRQAPGKESELVPAITSAGSTNYADSVKGRFTISRDNAKNTVYLQMNSLIPEDTAVYYCATEPSGYYDSYYYFTYSDNYWGQGTQVTVSS", "polyreactivity (PSR sort gate)": "low polyreactivity"},
      {"sequence": "QVQLEESGGGLVQAGGSLRLSCAASGRIFWGYAMGWYRQAPGKERELVAGITYSGGSTYYADSVKGRFTISRDNAKNTVYLQMNSLKPEDTAVYYCAADATPGRGVDYWGQGTQVTVSS", "polyreactivity (PSR sort gate)": "high polyreactivity"},
      {"sequence": "QVQLEESGGGLVQAGGSLRLSCAASGRIFYFNTKGWYRQAPGKERELVAAISRSGTSTYYADSVKGRFTISRDFAKNTVYLQMNSLKPEDTAVYYCAARFGVKRGQYDYWGQGTQVTVSS", "polyreactivity (PSR sort gate)": "high polyreactivity"},
      {"sequence": "QVQLEESGGGLVQAGGSLRLSCAASGRIFYHYAMGWYRTAPGKERELVAAITSSGAGTYYADSVKGRFTISRDNAKNTVYLQMNSLKPEDTAVYYCAADASRRYRYWYDYWGQGTQVTVSS", "polyreactivity (PSR sort gate)": "high polyreactivity"},
      {"sequence": "QVQLEESGGGLVQAGGSLRLSCAASGRIFYPYAMGWYRQAPGKERELVAAISRSGGSTYYADSVKGRFTISRDNAKNTVYLQMNSLKPEDTAVYYCATGFYRAISHHGYDYWGQGTQVTVSS", "polyreactivity (PSR sort gate)": "low polyreactivity"},
      {"sequence": "QVQLEESGGGLVQAGGSLRLSCAASGRILSLYAMGRYRQAPGKERELVAAIRWSGSRTYYADSVKGRFTISRDNAKNTVYLQMNSLKPEDTAVYYCAAESHYPHKPGSDYWGQGTQVTVSS", "polyreactivity (PSR sort gate)": "high polyreactivity"},
      {"sequence": "QVQLEESGGGLVQAGGSLRLSCAASGRTFDIYAMGWYRQATGKERELVAAISSGGSTYYADSVKGRFTISRDNAKNTVFLQMNSLKPEDTAVYYCAVRWYDQVSRRGIGYYWGQGTQVTVSS", "polyreactivity (PSR sort gate)": "low polyreactivity"},
      {"sequence": "QVQLEESGGGLVQAGGSLRLSCAASGRTFSSYAMVWYRQAPGKERELVAAINSGGSTNYADSVKGRFTISRDNAKNTVYLQMNSLKPEDTAVYYCNAVTFWGLGYDYWGQGTQVTVSS", "polyreactivity (PSR sort gate)": "low polyreactivity"},
      {"sequence": "QVQLEESGGGLVQAGGSLRLSCAASGRTFVYYAMGWYRTATGKQRELVAAITSSGSRTYYADSVKGRFTFSRDNAKNTVYLQMNSLKPEDTAVYYCAADYVAHGDYRVLYDYWGQGTQVTVSS", "polyreactivity (PSR sort gate)": "low polyreactivity"},
      {"sequence": "QVQLEESGGGLVQAGGSLRLSCAASGRTITNYAMGWYRQAPGKERELVASINSGGSTSYADSVKGRFTISRDNAKNTVYLQMNSLKPEDTAVYYCNKRYLKFWGHQYGYWGQGTQVTVSS", "polyreactivity (PSR sort gate)": "high polyreactivity"},
      {"sequence": "QVQLEESGGGLVQAGGSLRLSCAASGRTSLAYAMGWYRQATGKEMELVAGITSGGNTNYADSVKGRFTISCDNAKNTVYLQMNSLKPEDTAVYYCNKKKRWQWYSDSVLDYLGFYSWGQGTQVTVSS", "polyreactivity (PSR sort gate)": "low polyreactivity"},
      {"sequence": "QVQLEESGGGLVQAGGSLRLSCAASGSIFAVYAMGWYIQAPGKERELVATISGRGGSTYYADSVKGRFTISRDNAKNTVYLQMNSLKPEDTAVYYCNARVLFRRERMDSWGQGTQVTVSS", "polyreactivity (PSR sort gate)": "high polyreactivity"},
      {"sequence": "QVQLEESGGGLVQAGGSLRLSCAASGSIFFYYAMGWYRQAPGKERELVAAIRSGTSTNYADSVKGRFTISRDNAKNTVYLQMNSLKPEDTAVYYCAARFPGGCYGMDYWGQGTQVTVSS", "polyreactivity (PSR sort gate)": "low polyreactivity"},
      {"sequence": "QVQLEESGGGLVQAGGSLRLSCAASGSIFGLYAMGWYRQAPGKERELVAAISARGGSTYYADSVKGRFTISRDNAKNTVYLQMNSLKPEDTAVNYCATRQVSAYSYIYDYWGQGTQVTVSS", "polyreactivity (PSR sort gate)": "high polyreactivity"},
      {"sequence": "QVQLEESGGGLVQAGGSLRLSCAASGSIFNYYAMGWYRQAPGKERELVAAITTSGGNTYYADSVKGRFTISRDNAKNTVYLQMNSLKPEDTAVYYCNVDARSSYDYWGQGTQVTVSS", "polyreactivity (PSR sort gate)": "low polyreactivity"},
      {"sequence": "QVQLEESGGGLVQAGGSLRLSCAASGSIFTYYAMGSYRQAPGKERELVARITRGGGTTYYADSVKGRFTISRDNAKNTVYLQMNSLKPEDTAVYYCAADFFAGTPRTFDYWGQGSQVTVSS", "polyreactivity (PSR sort gate)": "high polyreactivity"},
      {"sequence": "QVQLEESGGGLVQAGGSLRLSCAASGSIFVTNAMGWYRQAPVKERELVAAISSGGNTNYADSVKGRFTISRDNAKNTVYLQMNSLKPEDTAVYYCAKDPDKVDYVDMDYWGQGTQVTVSS", "polyreactivity (PSR sort gate)": "low polyreactivity"},
      {"sequence": "QVQLEESGGGLVQAGGSLRLSCAASGSIFWIYALGWYRQAPGKERELVATITRRGGSTYYADSVKGRFTISRDNAKNTVYLQMNSLKPEDTAVYYCATEPGYTYLTSYKYDYWGQGTQVTVSS", "polyreactivity (PSR sort gate)": "low polyreactivity"},
      {"sequence": "QVQLEESGGGLVQAGGSLRLSCAASGSIFYSNAMGWYRQAPGKEREFVAAISAGGGSTYYADSVKGRFTISRDNEKNTVYLQMNSLKPEDTSVYYCAAQPYNIIYPYDYWGQGTQVTVSS", "polyreactivity (PSR sort gate)": "low polyreactivity"},
      {"sequence": "QVQLEESGGGLVQAGGSLRLSCAASGSIFYSYAMGWYRQAPGKERELVAAINWSGGSTYYADSVKGRFTISRDNAKNTFYFQMNSLKPQDTAVYYCAADYGWGPIYDYWGQGTQVNVSS", "polyreactivity (PSR sort gate)": "low polyreactivity"}
    ]}
  ]
}
